Laboratory results: patent US20110027820A1

Molecular target: Gal4 DNA binding domain (DBD) fused to the RXR ligand binding domain (GBD:RXR) (yeast; human) (UniProt P04386)
Assay: cell-based or functional assay

increase in the sensitivity of chemical complementation (yeast growth in response to 9cRA) against GBD:RXR alone: 1000 fold
Substance: human nuclear receptor coactivator ACTR fused to the yeast Gal4 activation domain (ACTR:GAD) (from UniProt Q9Y6Q9 1-1424)
